Experimental data taken from patent US7135457B1, “Random peptides that bind to gastro-intestinal tract (GIT) transport receptors and related methods” (Cytogen Corporation, priority 1997, dated 2006).
Peptide text beside a SMILES is read from it. * marks the point of attachment. Dansyl = CN(C)c1cccc2c(S(=O)(=O)*)cccc12

Legend:
[1] = test system: P100 membrane fractions derived from Caco-2 cells; experiment: Dansylated peptide ELISA on P100: PAX2 and HAX42 peptides relative binding; conditions: PAX2 peptides, ratio to ZElan021 (HAX42 = 1.00); for Binding value at 20 μg/ml: first 20 μg/ml column
[2] = test system: P100 membrane fractions derived from Caco-2 cells; experiment: as above; conditions: ratio to ZElan021 (HAX42 = 1.00)
BSA = BSA (Bos taurus, UniProt P02769); experiment: Phage ELISA on BSA (background control protein); assay type: binding
Description: 96 well plates were coated overnight with GIT receptor, BSA and, optionally, IDE (insulin degrading enzyme, an irrelevant His-fusion protein) or hTF. The plates were blocked for one hour with 0.5% BSA-PBS. After clarification, the amplified phage were diluted 1:100 in 1% BSA plus 0.05% Tween 20 in PBS and added to the plates. Following incubation of the plates on a rotator for 1 to 2 hours, the plates were washed 5 times with 1% BSA plus 0.05% Tween 20 in PBS. Dilute anti-M13-HRP conjugate (anti-M13 antibody linked to horse radish peroxidase (HRP)) was added to all the wells and the plate was incubated for one hour on a rotator. After the plates were washed 5 times, as described above, TMB substrate was added to the wells. The plates were read at 650 nm absorbance.

[3] = Drug potency, peptide loading and size of coacervated particles; assay type: physicochemical; conditions: formulation 1 particles (coacervation), blend; for Insulin (insulin potency): coated with the named peptide; for Peptide (level of peptide coated onto the particles): measured by fluorescence
[4] = for presence in the systemic circulation (in words): text summary of HPT1 and hPEPT1 pools; for transport from the GIT closed loop into the portal circulation (in words): text summary of hSI, D2H, HPT1, hPEPT1 pools; for presence in the intestine samples or fractions (in words): text summary of the four pools
Description: In particular, phages selected in vitro to each receptor or binding site located in the GIT were amplified in E. coli, PEG-precipitated, resuspended in TBS and the titer of each phage sample was determined by plaquing in E. coli as described above. […] Using the in situ loop model described above, 0.5 ml of preselected phage library solution was injected into the tied-off portion of the duodenum/jejunum. Blood was collected into heparinized tubes from the portal vein at 0, 15, 30, 45 and 60 minutes. A blood sample was taken from the systemic circulation at the end of the experiment. Similarly, the portion of the duodenum/jejunum used for phage injection was taken at the end of the experiment.
Thirty microliters of the collected portal blood (neat and 10^−2, 10^−4, 10^−6 dilutions) was added to 30 μl E. coli K91Kan cells (overnight culture) and incubated at 37° C. for 10 min. Subsequently, 3 ml of top agarose was added and the samples were plated for plaques. One hundred microliters of the collected portal blood was added to 100 μl of E. coli K91Kan. Five milliliters of LB medium was then added and the samples were incubated at 37° C. overnight in a rotating microbial incubator. The E. coli was removed by centrifugation and the amplified phage supernatant samples were either titered directly or were PEG-precipitated, resuspended in TBS and titered. Following titration of the amplified phage, samples containing phage from each set of animals were combined, adjusting the titer of each sample to the same titer, and were plated for plaques on LB agar plates (22 cm^2 square plates). Either 12,000 or 24,000 phage were plated for plaques.
Thirty microliters of the collected systemic blood (neat and 10^−2, 10^−4, 10^−6 dilutions) was added to E. coli K91Kan cells, incubated at 37° C. for 10 min. Three ml of top agarose was then added and the samples were plated for plaques. One hundred microliters of the collected systemic blood was added to 100 μl of E. coli K91Kan, incubated at 37° C. for 10 min. Five milliliters of LB medium was then added and the samples were incubated at 37° C. overnight in a rotating microbial incubator. The E. coli was removed by centrifugation and the amplified phage supernatant samples were either titered directly or were PEG-precipitated, resuspended in TBS and titered. Following titration of the amplified phage, samples containing phage from each set of animals were combined, adjusting the titer of each sample to the same titer, and were plated for plaques on LB agar plates (22 cm^2 square plates). Either 12,000 or 24,000 phage were plated for plaques. The intestinal tissue portion used in each closed loop was excised. […] Alternatively, the tissue (in PBS supplemented with protease inhibitors) was homogenized in an Ultra Thorex homogenizer, washed 3 times in PBS containing protease inhibitors and resuspended in PBS containing protease inhibitors (Int-G samples). In each case, serial dilutions (neat and 10^−2, 10^−4, 10^−6 dilutions) of the tissue homogenate was titered in E. coli.
The phage amplified from the portal blood, systemic blood and intestinal tissue was plated for plaques. […] The filters were air-dried, and the DNA was cross-linked to the filter (UV crosslinking: 2 min, high setting). The filters were incubated in pre-hybridization buffer (6×SSC, 5×Denhardt's solution, 0.1% SDS, 20 μg/ml yeast tRNA) at 40° C.-45° C. for at least 60 min.
Synthetic oligonucleotides, (22-mers), complimentary to regions coding for the receptor or binding sites used to create the preselected phage library, were synthesized (see Table 14 below).
The oligonucleotides (5 pmol) were 5′ end labelled with ^32P-ATP and T4 polynucleotide kinase and approximately 2.5 pmol of labelled oligonucleotide was used in hybridization studies. […] The filters were air-dried and exposed for autoradiography for 15 hours, 24 hours or 72 hours.
Hybridization data for pools from each receptor group of rats was compiled.

[5] = test system: fixed Caco-2 or C2BBe1 cells; experiment: ELISA of GST fusion proteins on fixed Caco-2 or C2BBe1 cells; assay type: binding
Description: Fixed Caco-2, C2BBe1, and A431 cell plates were prepared by growing cells on tissue culture treated microtiter plates. When cells were confluent, plates were fixed with 10% formaldehyde, washed twice with PBS and stored with 0.5% BSA-PBS at −20° C. […] The standard ELISA procedure was followed at this point.
The standard ELISA procedure was modified as follows. GST proteins were diluted to an appropriate concentration in PBS containing 1% BSA and 0.05% Tween20 (1% BPT), titered and incubated one hour at room temperature. Following five washes an anti-GST monoclonal antibody was added (Sigma, St. Louis Clone GST-2 diluted 1:10,000 in 1% BPT) and incubated one hour. After five more washes goat anti-mouse IgG2b-HRP was added (Southern Biotechnology Associates Inc., Birmingham, Ala., diluted 1:4000 in 1% BPT) and incubated one hour. After five washes plates were developed with TMB peroxidase substrate (Kirkegard and Perry, Gaithersburg, Md.). All data is presented with background binding subtracted.

fixed Caco-2 cells = experiment: Effect of thrombin cleavage on binding of GST-peptide fusions to fixed Caco-2 cells
Description: Binding of intact and thrombin-cleaved GST-peptide fusions to fixed Caco-2 cells was compared.
Thirty micrograms of each GST-peptide was treated with bovine thrombin (1μ/ml; 0.4 NIH units; Sigma CN.T9681) for 18 h at room temperature in 20 mM Tris-HCl pH8.0, 150 mM NaCl, 2.5 mM CaCl2. Controls were similarly treated without addition of thrombin. Ten micrograms of each GST-peptide fusion was removed for PAGE analysis, and 10 μg of fusions were added in duplicate to the fixed Caco-2 cells before 5-fold serial dilutions (1% BPT diluent). The fusions were allowed to bind for 1 h at room temperature. Following 6 washes with 1% BPT, binding was assayed by ELISA.

Sequence of BSA (P02769 25-607): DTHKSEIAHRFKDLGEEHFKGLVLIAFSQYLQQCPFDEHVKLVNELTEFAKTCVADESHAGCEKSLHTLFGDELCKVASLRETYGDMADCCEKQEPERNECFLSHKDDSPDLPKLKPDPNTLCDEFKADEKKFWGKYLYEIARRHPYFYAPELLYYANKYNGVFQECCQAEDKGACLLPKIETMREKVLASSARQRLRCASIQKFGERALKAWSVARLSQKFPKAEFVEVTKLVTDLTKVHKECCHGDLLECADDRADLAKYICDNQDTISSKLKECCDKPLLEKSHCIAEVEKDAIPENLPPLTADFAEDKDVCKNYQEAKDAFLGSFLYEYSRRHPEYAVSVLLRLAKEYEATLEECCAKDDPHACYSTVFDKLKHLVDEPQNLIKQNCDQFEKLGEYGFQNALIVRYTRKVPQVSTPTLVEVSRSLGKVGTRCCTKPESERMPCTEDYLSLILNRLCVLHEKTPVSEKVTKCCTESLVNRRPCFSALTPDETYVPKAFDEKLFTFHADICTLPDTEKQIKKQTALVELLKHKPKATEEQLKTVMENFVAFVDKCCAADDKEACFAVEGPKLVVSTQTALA

Molecule | Binding value at 50 μg/ml (Southern Ab) [1] | Binding value at 20 μg/ml [1] | Binding value at 50 μg/ml ([1]; first 50 μg/ml column) | Binding value at 50 μg/ml ([1]; second 50 μg/ml column) | Binding value at 50 μg/ml (Jackson Ab) [2] | Insulin (insulin potency) [3] | Peptide (level of peptide coated onto the particles) [3] | transport from the GIT closed loop into the portal circulation (in words) [4] | further results
CC(C)C[C@H](NC(=O)[C@H](C)NC(=O)[C@H](CCCNC(=N)N)NC(=O)[C@H](CC(N)=O)NC(=O)[C@H](Cc1c[nH]cn1)NC(=O)[C@H](CO)NC(=O)[C@H](CO)NC(=O)[C@@H](N)CCCCNS(=O)(=O)c1cccc2c(N(C)C)cccc12)C(=O)N[C@@H](CCCNC(=N)N)C(=O)N[C@H](C(=O)N[C@@H](CCCNC(=N)N)C(N)=O)[C@@H](C)O [ZElan078] (H-K(Dansyl)SSHNRALRTR-NH2) | 0.47 | 0.11 | 0.87 | 0.69 | 0.68 | – | – | – | –
C[C@H](NC(=O)[C@H](CCCNC(=N)N)NC(=O)[C@H](CCCNC(=N)N)NC(=O)[C@H](CC(N)=O)NC(=O)[C@H](Cc1c[nH]cn1)NC(=O)[C@H](CO)NC(=O)[C@H](CO)NC(=O)[C@@H](N)CCCCNS(=O)(=O)c1cccc2c(N(C)C)cccc12)C(=O)N[C@@H](CCCNC(=N)N)C(=O)N[C@H](C(=O)N[C@@H](CCCNC(=N)N)C(N)=O)[C@@H](C)O [ZElan079] (H-K(Dansyl)SSHNRRARTR-NH2) | 0.53 | 0.31 | 0.97 | 0.68 | 0.83 | – | – | – | –
CC(C)C[C@H](NC(=O)[C@H](CCCNC(=N)N)NC(=O)[C@H](CCCNC(=N)N)NC(=O)[C@H](CC(N)=O)NC(=O)[C@H](Cc1c[nH]cn1)NC(=O)[C@H](CO)NC(=O)[C@H](CO)NC(=O)[C@@H](N)CCCCNS(=O)(=O)c1cccc2c(N(C)C)cccc12)C(=O)N[C@@H](C)C(=O)N[C@H](C(=O)N[C@@H](CCCNC(=N)N)C(N)=O)[C@@H](C)O [ZElan080] (H-K(Dansyl)SSHNRRLATR-NH2) | 0.38 | 0.23 | 0.84 | 0.45 | 0.67 | – | – | – | –
RVGQCTDSDVRRPWARSCAHQGCGAGTRNSHGCITRPLRQASAH [SNi10] | – | – | – | – | – | 59.5 mg/g | 1.75 µL/mg | – | BSA (BSA; Table 1, phage panned on hSI): 0.051 OD
RYKHDIGCDAGVDKKSSSVRGGCGAHSSPPRAGRGPRGTMVSRL [DCX8] | – | – | – | – | – | 59.1 mg/g | 1.87 µL/mg | – | BSA (BSA; Table 3): 0.063 OD
SARDSGPAEDGSRAVRLNGVENANTRKSSRSNPRGRRHP [Peptide P31] | – | – | – | – | – | 67.0 mg/g | 1.22 µL/mg | found in the portal circulation | BSA (BSA; Table 4): 0.075 OD; presence in the systemic circulation (in words) [4]: found in the systemic circulation; presence in the intestine samples or fractions (in words) [4]: preferential binding
SDHALGTNLRSDNAKEPGDYNCCGNGNSTGRKVFNRRRPSAIPT [HAX42] | – | – | – | – | – | 55.9 mg/g | 2.93 µL/mg | found in the portal and systemic circulation | BSA (BSA; Table 5): 0.071 OD; presence in the systemic circulation (in words) [4]: found in the portal and systemic circulation
SQGSKQCMQYRTGRLTVGSEYGCGMNPARHATPAYPARLLPRYR [DCX11] | – | – | – | – | – | – | – | preferably transported | BSA (BSA; Table 3): 0.071 OD; presence in the intestine samples or fractions (in words) [4]: found in the intestinal samples fractions
gst-ENANTRKSSRSNPRGRRHP [GST-P31.103] | – | – | – | – | – | – | – | – | binding of truncated GST fusion compared with full-length, fixed Caco-2 cells ([5]; Caco-2): bound almost as well as full-length P31; effect of thrombin cleavage on detection of binding to fixed Caco-2 cells (fixed Caco-2 cells; Caco-2): significantly reduced
gst-RVGQCTDSDVRRPWARSCAHQGCGAGTRNSHGCITRPLRQASAH [GST-SNi10] | – | – | – | – | – | – | – | – | binding to fixed Caco-2 or C2BBe1 cells relative to GST control ([5]; anti-GST ELISA): bound; effect of thrombin cleavage on detection of binding to fixed Caco-2 cells (fixed Caco-2 cells; thrombin 18 h at room temperature): significantly reduced
